Kd data for three molecules are collected here from patent publication US20200317768A1 (published 2020).

First the molecules themselves.
B1: M103205H795-MY141/M103202L889-SK1 (antibody, human IgG1, kappa)
heavy: QVTLKESGPVLVKPTETLTLTCTVSGIDLSHDDISWVRQAPGKGLEWVGIISYAGSTYYASWAKGRLTISKDTSKNQVVLTMTNMDPVDTATYYCARGVPAYSHGGDLWGQGTLVTVSSASTKGPSVFPLAPSSKSTSGGTAALGCLVKDYFPEPVTVSWNSGALTSGVHTFPAVLQSSGLYSLSSVVTVPSSSLGTQTYICNVNHKPSNTKVDKKVEPKSCDKTHTCPPCPAPELLNGPSVFLFPPKPKDTLMISRTPEVTCVVVDVAHEDPEVKFNWYVDGVEVHNAKTKPREEQYNSTYRVVSVLTVLHQDWLNGKEYKCKVSNKALPAPIEKTISKAKGQPREPQVYTLPPSREEMTKNQVSLTCLVKGFYPSDIAVEWESNGQPENNYKTTPMVLDSDGSFFLYSKLTVDKSRWQQGNVFSCSVMHEALHNHYTQKSLSLSP
light: DIVMTQSPATLSLSPGERATLSCTSSQSVYHANWLSWFQQKPGQPPKLLIYWASTLAYGVPSRFSGSGSGTDFTLTISSLQPEDAATYYCAGGYGGGRYAFGQGTKVEIKRTVAAPSVFIFPPSDEQLKSGTASVVCLLNNFYPREAKVQWKVDNALQSGNSQESVTEQDSKDSTYSLSSTLTLSKADYEKHKVYACEVTHQGLSSPVTKSFNRGEC
notes: Substitutions introduced into M103205H795-SG1; expressed with M103202L889-SK1 as light chain
B2: M103205H795-MY197/M103202L889-SK1 (antibody, human IgG1, kappa)
heavy: QVTLKESGPVLVKPTETLTLTCTVSGIDLSHDDISWVRQAPGKGLEWVGIISYAGSTYYASWAKGRLTISKDTSKNQVVLTMTNMDPVDTATYYCARGVPAYSHGGDLWGQGTLVTVSSASTKGPSVFPLAPSSKSTSGGTAALGCLVKDYFPEPVTVSWNSGALTSGVHTFPAVLQSSGLYSLSSVVTVPSSSLGTQTYICNVNHKPSNTKVDKKVEPKSCDKTHTCPPCPAPELLNGPSVFLFPPKPKDTLMISRTPEVTCVVVDVSDEDPEVKFNWYVDGVEVHNAKTKPREEQYNSTYRVVSVLTVLHQDWLNGKEYKCKVSNKALPKPIEKTISKAKGQPREPQVYTLPPSREEMTKNQVSLTCLVKGFYPSDIAVEWESNGQPENNYKTTPMVLDSDGSFFLYSKLTVDKSRWQQGNVFSCSVMHEALHNHYTQKSLSLSP
light: DIVMTQSPATLSLSPGERATLSCTSSQSVYHANWLSWFQQKPGQPPKLLIYWASTLAYGVPSRFSGSGSGTDFTLTISSLQPEDAATYYCAGGYGGGRYAFGQGTKVEIKRTVAAPSVFIFPPSDEQLKSGTASVVCLLNNFYPREAKVQWKVDNALQSGNSQESVTEQDSKDSTYSLSSTLTLSKADYEKHKVYACEVTHQGLSSPVTKSFNRGEC
notes: as for B1
B3: M103205H795-MY147/M103202L889-SK1 (antibody, human IgG1, kappa)
heavy: QVTLKESGPVLVKPTETLTLTCTVSGIDLSHDDISWVRQAPGKGLEWVGIISYAGSTYYASWAKGRLTISKDTSKNQVVLTMTNMDPVDTATYYCARGVPAYSHGGDLWGQGTLVTVSSASTKGPSVFPLAPSSKSTSGGTAALGCLVKDYFPEPVTVSWNSGALTSGVHTFPAVLQSSGLYSLSSVVTVPSSSLGTQTYICNVNHKPSNTKVDKKVEPKSCDKTHTCPPCPAPELWNGPSVFLFPPKPKDTLMISRTPEVTCVVVDVSEEDPEVKFNWYVDGVEVHNAKTKPREEQYNSTYRVVSVLTVLHQDWLNGKEYKCKVSNKALPAPIEKTISKAKGQPREPQVYTLPPSREEMTKNQVSLTCLVKGFYPSDIAVEWESNGQPENNYKTTPMVLDSDGSFFLYSKLTVDKSRWQQGNVFSCSVMHEALHNHYTQKSLSLSP
light: DIVMTQSPATLSLSPGERATLSCTSSQSVYHANWLSWFQQKPGQPPKLLIYWASTLAYGVPSRFSGSGSGTDFTLTISSLQPEDAATYYCAGGYGGGRYAFGQGTKVEIKRTVAAPSVFIFPPSDEQLKSGTASVVCLLNNFYPREAKVQWKVDNALQSGNSQESVTEQDSKDSTYSLSSTLTLSKADYEKHKVYACEVTHQGLSSPVTKSFNRGEC
notes: as for B1

The target in this assay is T1, human FcγRIIIaV extracellular domain, C-terminal His-tag (human, UniProt P08637 17-208).
T1 construct: also called human FcgRIIIaV; FcgRIIIaV
T1 sequence (P08637 17-208 F176V): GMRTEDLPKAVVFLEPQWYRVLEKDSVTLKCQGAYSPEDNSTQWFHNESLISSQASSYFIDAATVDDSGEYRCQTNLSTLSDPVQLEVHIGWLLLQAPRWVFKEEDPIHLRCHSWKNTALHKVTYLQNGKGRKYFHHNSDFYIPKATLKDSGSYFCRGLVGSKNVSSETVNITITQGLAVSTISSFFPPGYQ
The assay can be described thus: SPR (Biacore), antibody captured, FcgR analyte. (In general: In SPR one partner is held on a chip, and binding of the other changes the refractive index at the surface.)
As usually defined, the Kd is the constant that tells how readily two partners part at equilibrium. As for B1, the Kd was found to be 12 µM.
In the case of B2, the Kd came out at 10 µM. This Kd and that of the molecule before are within 1.5-fold of each other.
The value for B3 was 11 µM.
